“And” between values parts separate entries of the source, which are not always exact repeats. Identical values can stand only once.
What was measured:
[1] = biological target: T1, human LAG-3 overexpressed on cells (human, UniProt P18627 23-525); experiment: cell-based or functional assay
T1 sequence (looked up): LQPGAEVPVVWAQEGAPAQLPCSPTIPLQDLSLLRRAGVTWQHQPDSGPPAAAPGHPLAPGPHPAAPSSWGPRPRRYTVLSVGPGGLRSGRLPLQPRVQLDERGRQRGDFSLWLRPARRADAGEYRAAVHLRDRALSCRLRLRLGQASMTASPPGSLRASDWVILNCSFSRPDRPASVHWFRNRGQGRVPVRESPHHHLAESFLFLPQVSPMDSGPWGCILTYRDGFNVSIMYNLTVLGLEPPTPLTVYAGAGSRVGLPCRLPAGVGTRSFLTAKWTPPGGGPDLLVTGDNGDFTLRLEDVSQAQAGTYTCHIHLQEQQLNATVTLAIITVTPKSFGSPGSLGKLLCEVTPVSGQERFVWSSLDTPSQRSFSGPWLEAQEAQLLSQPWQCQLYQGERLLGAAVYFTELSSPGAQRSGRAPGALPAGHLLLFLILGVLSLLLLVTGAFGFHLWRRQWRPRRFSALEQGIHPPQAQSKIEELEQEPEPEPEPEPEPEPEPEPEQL

[2] = biological target: T1, human LAG-3 overexpressed on cells; experiment: flow cytometry, HEK293E cells overexpressing human LAG-3
Protocol: (§1) After that, the cells were washed three times with PBS containing 2% FBS and then subjected to the reaction for 30 minutes at 4° C. with anti-human IgG antibody (#FI-3000, Vectorlabs) linked with FITC fluorescent. The cells were washed by the same washing process as above followed by suspension in 0.2 ml PBS containing 2% FBS. The cells were then analyzed by FACSCanto II flow cytometer.

[3] = biological target: T2, mouse LAG-3 overexpressed on HEK293E cells (mouse, UniProt Q61790 24-521); experiment: flow cytometry, HEK293E cells overexpressing mouse LAG-3
T2 construct: whole, on cells; also called HEK293E-mLAG3; mLAG3 (Mouse)
T2 sequence (looked up): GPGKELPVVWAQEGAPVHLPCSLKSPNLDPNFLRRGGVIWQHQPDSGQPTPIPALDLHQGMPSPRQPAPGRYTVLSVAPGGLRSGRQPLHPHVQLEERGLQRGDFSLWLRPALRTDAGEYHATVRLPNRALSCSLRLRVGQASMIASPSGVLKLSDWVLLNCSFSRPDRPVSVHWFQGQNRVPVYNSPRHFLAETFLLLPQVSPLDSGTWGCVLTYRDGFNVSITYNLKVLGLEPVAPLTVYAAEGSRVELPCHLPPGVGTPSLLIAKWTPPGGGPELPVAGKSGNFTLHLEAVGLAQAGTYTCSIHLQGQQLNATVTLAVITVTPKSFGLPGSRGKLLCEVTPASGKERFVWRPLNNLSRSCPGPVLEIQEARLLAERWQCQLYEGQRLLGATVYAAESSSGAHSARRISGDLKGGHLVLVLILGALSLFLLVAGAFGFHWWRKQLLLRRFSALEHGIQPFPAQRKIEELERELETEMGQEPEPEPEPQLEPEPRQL
Protocol: as §1

[4] = biological target: T3, recombinant human LAG-3 extracellular domain fused with mouse Fc (hLAG-3-mFc) (human, UniProt P18627 29-450); experiment: Octet biolayer interferometry, 1:1 global fit
T3 construct: range 29-450; Made in HEK293F cells; also called human LAG-3 antigen; wild-type (WT) LAG-3; not shown: mouse Fc (mFc) at the carboxy terminal
T3 sequence (looked up): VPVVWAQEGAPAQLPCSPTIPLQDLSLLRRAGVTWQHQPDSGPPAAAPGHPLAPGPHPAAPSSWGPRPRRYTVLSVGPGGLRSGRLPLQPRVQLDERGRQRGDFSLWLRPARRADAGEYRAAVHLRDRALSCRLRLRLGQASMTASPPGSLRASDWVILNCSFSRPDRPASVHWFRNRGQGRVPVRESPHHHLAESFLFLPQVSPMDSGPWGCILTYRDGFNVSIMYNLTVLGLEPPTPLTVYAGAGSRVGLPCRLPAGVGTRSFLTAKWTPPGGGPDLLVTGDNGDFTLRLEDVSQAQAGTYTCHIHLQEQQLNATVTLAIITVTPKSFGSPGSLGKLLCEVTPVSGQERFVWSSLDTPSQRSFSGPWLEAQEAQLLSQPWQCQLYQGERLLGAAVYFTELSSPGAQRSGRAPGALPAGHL
Protocol: (§2) After stabilization for 10 minutes in a buffer (#18-1042, Fortebio Inc.), immobilized antigen or antibody was washed out for 5 minutes with the buffer. The antibody or antigen desired for binding was prepared at different concentrations (0.94-60 nM) in a 96-well plate (#655209, Greiner Bio-One, USA) and subjected to the association reaction for 10 minutes followed by dissociation reaction for 10 minutes or 30 minutes.

[5] = biological target: T4, recombinant monkey LAG-3 fused with mouse Fc (MrhLAG-3-mFc) (monkey); experiment: Octet biolayer interferometry, 1:1 global fit
T4 construct: also called monkey LAG-3 antigen
Protocol: as §2

[6] = biological target: T5, recombinant mouse LAG-3 fused with mouse Fc (mLAG-Fc) (mouse, UniProt Q61790 24-442, limits assumed); experiment: Octet biolayer interferometry, 1:1 global fit
T5 construct: also called mouse LAG-3 antigen; not shown: mouse Fc (mFc) at the carboxy terminal
T5 sequence (looked up): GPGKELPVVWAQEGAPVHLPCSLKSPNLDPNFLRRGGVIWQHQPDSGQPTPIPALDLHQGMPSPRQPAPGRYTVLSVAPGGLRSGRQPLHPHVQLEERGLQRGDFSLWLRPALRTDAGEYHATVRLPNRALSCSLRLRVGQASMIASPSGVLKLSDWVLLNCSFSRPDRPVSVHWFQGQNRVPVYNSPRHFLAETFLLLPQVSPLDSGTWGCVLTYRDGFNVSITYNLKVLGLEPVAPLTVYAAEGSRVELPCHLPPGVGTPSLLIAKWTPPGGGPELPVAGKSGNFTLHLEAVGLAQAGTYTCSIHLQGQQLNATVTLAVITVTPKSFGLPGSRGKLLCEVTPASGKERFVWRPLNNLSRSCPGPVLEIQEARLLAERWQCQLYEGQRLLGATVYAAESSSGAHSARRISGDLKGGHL
Protocol: as §2

[7] = biological target: T3, recombinant human LAG-3 extracellular …; experiment: flow cytometry, inhibition of LAG-3-mFc binding to Raji cells (MHC class II)
Protocol: After that, the antigen-antibody mixture was reacted with the prepared cells for 30 minutes at 4° C. […] After washing them in the same manner as above and suspending them in 0.2 ml PBS containing 2% FBS, analysis was made using CytoFLEX flow cytometer (Beckman coulter, USA)

B1: human anti-LAG-3 monoclonal antibody 1E09 (antibody, V domains shown)
VH: QVQLVQSGGDLVKPGGSLRLSCAASGFSFSDHYMNWIRQAPGKGLEWVAYIDTSATYIYYADSVKGRFTISRDNAKNSLYLQMNSLRAEDTAVYYCARDNWGSLDYWGQGALVTVSS
VL: DIQMTQSPSSLSPSVGDRVTITCQASQEISIYLNWYQQKPGKAPKLLIYDASNLETGVPSRFSGSGSGTDFTLTISSLQPEDFATYYCQQTYITPYTFGQGTKLDIK
notes: Tested as full IgG converted from scFv; also called LAG-3-1E09; Parent (1E09)
EC50 (µg/ml), LAG3/MHC class II Blockade bioassay [1]: 0.0688 µg/mL and 0.186 µg/mL | EC50 [2]: 0.0757 µg/mL | EC50 [3]: 1.5 µg/mL | koff [4]: 7.23e-05 s⁻¹ | kon [4]: 788000 M⁻¹ s⁻¹ | koff [5]: 6.08e-05 s⁻¹ | kon [5]: 185000 M⁻¹ s⁻¹ | koff [6]: 0.000256 s⁻¹ | kon [6]: 430000 M⁻¹ s⁻¹ | IC50 [7]: 25.1 nM

— patent US20210238283A1 (Y BIOLOGICS, published 2021)
